Our source for the ΔΔG bind against BPTI WT values is paper PMC8532158.

Experiment in all cases: yeast surface display affinity sorting with deep sequencing (deep mutational scanning); BPTI single and double mutant library on yeast, sorted by FACS into four affinity gates (HI, WT, SL, LO) for each protease; NGS enrichments converted into ΔΔG_bind by a normalization formula fitted on ΔΔG_bind values of purified proteins
The target of assay [1] is BPTI A16S displayed on the yeast surface (bovine).
The target in assay [2] is BPTI K15A displayed on the yeast surface (bovine).
Assay [3] concerns the target BPTI K15R displayed on the yeast surface (bovine).

In the case of bovine trypsin (enzyme), the ΔΔG bind against BPTI WT in assay [1] is 4.5 kcal/mol; in assay [2], 11.1 kcal/mol; in assay [3], -1.4 kcal/mol.
